Sequences and labels used below:
B1: chicken forkhead box O1 (FOXO1) wild-type [chicken] / Ran protein [chicken (endogenous in granulosa cells)] (parent)
chain 1: MAEAPQLVDIDPDFEPLPRPRSCTWPLPRPEFNPPSSATSSPAPSCGGQPDGAAAAGAAVAVAASGALSADFISNLCLVEESEDFALPPAAAAPPESAACRCGDFSAPEAGCRLHPPGPPPVPPVPPAVAALSPGPVAGQPRKSSSSRRNAWGNLSYADLITKAIESSPEKRLTLSQIYEWMVKSVPYFKDKGDSNSSAGWKNSIRHNLSLHSKFIRVQNEGTGKSSWWMLNPEGGKSGKSPRRRAASMDNNSKFAKSRGRAAKKKASLQSGQEGNGDSPGSQFSKWPASPSSHSNDDFDNWSTFRPRTSSNASTISGRLSPILPEQDDLGDGDVHSMVYPSSATKMTSTLPSLSEMSSSENMENLLDNLNLLSPNTSMTVSTQSSSAALMQQTPGYSFASSTTSICSPNPDYRKFTYAQASMNSLPQIPMQTLQDSKSSYGSMSQFNCPAGLLKELLTSDSPPHNDILASVDTGVSQAGGRALGQGVLMVTNSVMPTYGNQPPHNKMMNPNARPHQGHNQPTPAVNGRALSHTVNPMSHTSCLNRLSTVKTSLQVPMSHQMQMNAMNPYAPVNSCNGYGRVGIVSLHQEKLPSDLDDMLIERLDCDMESIIRNDLMDGETLDFNFDSVLPNQSFQHSVKTTTHSWVSG
chain 2: not shown

This experiment covers variants of B1. Description: co-immunoprecipitation (IP FOXO1, WB Ran), band quantification. Particulars: with Ran protein [chicken (endogenous in granulosa cells)].
[1] abbreviates: with 740-Y-P, n = 3, read off a plot.
Setting [2] is: with Ly294002, n = 3, read off a plot.

As for chain 1 S311A, the response reads like this: under setting [1], 1.3; under setting [2], 0.33.

On to chain 1 S248A, for which the response under setting [1] was found to be 1.2 and the response under setting [2] was determined as 0.28.

These data come from article PMC12691273.
